± gives the standard deviation of the averaged measurements.
System: Saccharomyces cerevisiae
Assay: protein stability index of tFT-peptide fusion (C-terminal peptide) (PSI (0-1 scale)); higher = more stable (slower turnover)
Details: genetic background: wild type; temperature: 30 C
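Further: PSI is a weighted mean of sequencing reads over stability bins, variants kept only with over 10 reads, mCherry proximal and sfGFP distal, peptide attached via GGGS linker.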

Sequence	protein stability index
FLLPLKCRSTTN	0.712 ± 0.046
RPPLLSPSPPPP	0.649 ± 0.014
QSSWGGRWVRGG	0.669 ± 0.011
EAGESKNVDSLL	0.638 ± 0.0081
GQSVRELDSIKV	0.652 ± 0.17
EKQKGIVQADKI	0.665 ± 0.046
MRAIRPGHSDLV	0.629 ± 0.043
CLLLPPLATFPR	0.695 ± 0.017
GLVAVRARGSRA	0.663 ± 0.094
TPLAPASPPAAR	0.717 ± 0.056
VAVGHWGIVPLW	0.725 ± 0.08
SLSGSPIPFIRL	0.764 ± 0.072
CGGAQRREGGLG	0.649 ± 0.03
PLLDEQCLGIDS	0.658 ± 0.015
VRGMGGIGRCVG	0.657 ± 0.074
TGTEKFTMQFKF	0.673 ± 0.042
EGYRDMAFKLCK	0.697 ± 0.0093
VRCSLPSPSPRP	0.77 ± 0.015
NKKDCFRNRKWE	0.593 ± 0.03
SYETLRTPARIA	0.583 ± 0.043
GNPGRTAHILQL	0.655 ± 0.03
GRSLGTPRYHPG	0.713 ± 0.016
LCHLSSFLAALS	0.618 ± 0.012
TCTDTCIRGSRL	0.77 ± 0.033
TPQSLRDAHGSC	0.662 ± 0.056
TLFVAWTDCMSY	0.6591 ± 0.0061

Sequence	protein stability index
RCAGWSVDVGEG	0.623 ± 0.17
GGLWPWGRVVCW	0.687 ± 0.078
AGRGGSPRFVGR	0.657 ± 0.053
GKEGKGEAGIGE	0.686 ± 0.024
NRNIRKKKIKNK	0.668 ± 0.054
SSRGSSSPPPHF	0.709 ± 0.074
DYPQWWEEQHVP	0.797 ± 0.019
VLFSCLSLCWVF	0.6081 ± 0.005
PAGVPPAVCRDL	0.609 ± 0.0092
KVSPTAGLTSRI	0.711 ± 0.061
LTILRSPLPSLS	0.701 ± 0.019
DQMVILSHYSVR	0.683 ± 0.038
GRSHYFLSILRI	0.5268 ± 0.0018
PTSQRPFFLISP	0.704 ± 0.015
PQTPPPLLPPSL	0.671 ± 0.013
GAECVSGWGGET	0.709 ± 0.035
RLVDCDLTDKWH	0.696 ± 0.018
HCLIPGEIHRIS	0.6741 ± 0.0037
PFSGLPVRCELC	0.672 ± 0.048
KTKKRKTKKKTK	0.723 ± 0.036
LERDRLINVLPI	0.726 ± 0.042
EKKEKTPKPKPR	0.685 ± 0.025
VFYVGGGSVVRG	0.663 ± 0.011
SFRPPSTPRRRT	0.695 ± 0.03
AGSSFDLGSGYS	0.724 ± 0.083
LLSFFLSPPSIL	0.734 ± 0.02

Sequence	protein stability index
DPPLRPSSLPPP	0.653 ± 0.0084
VWSGGDGGGAVV	0.733 ± 0.051
GGGVGGGRAWWR	0.699 ± 0.037
VGVSLVLPDWDV	0.693 ± 0.053
GSPSRKGQSRTG	0.698 ± 0.012
SISIGVRHSRPP	0.609 ± 0.033
GASGRKPGCDRL	0.67 ± 0.062
RGAVEAGGWRIG	0.682 ± 0.0087
CGALKGKKPYGV	0.715 ± 0.057
RHLESERAPLPG	0.688 ± 0.018
TGVCKGMRWRGV	0.683 ± 0.045
KKKKTVHKKNRR	0.699 ± 0.022
VRRGGGGGGYGI	0.72 ± 0.031
PTSPLVFFFVPL	0.624 ± 0.037
PPPFSPLPLPPS	0.71 ± 0.044
RGLRIRFKKIDK	0.704 ± 0.078
EDFKTKQKKKKE	0.709 ± 0.077
LLSASPASLSFL	0.706 ± 0.054
DARTLTECTCRG	0.648 ± 0.072
LPSPHPPPPPAH	0.727 ± 0.081
GEAGGEESEEGY	0.676 ± 0.042
TPHAPTATPRDN	0.727 ± 0.076
NKRKNVFESTNA	0.678 ± 0.019
SPPRPPPPSPPF	0.768 ± 0.015
PLPRHSSPLPHI	0.684 ± 0.0089
LPPHPPREAPPN	0.682 ± 0.083

Sequence	protein stability index
WSGERCFLGFYR	0.771 ± 0.087
CTRHNGTCRVKA	0.658 ± 0.017
KKKQPKKNQNPT	0.767 ± 0.075
QLFTAKHSDPLD	0.7444 ± 0.0023
RQRWLSELSKAL	0.712 ± 0.083
KGKRGKKKEESN	0.6515 ± 0.0039
PSPPAPPPETSP	0.713 ± 0.031
HDHEARHSDSLN	0.658 ± 0.026
LTSDGGLSGCSL	0.67 ± 0.029
GGGGVWVSWCGW	0.679 ± 0.013
CVDGLFCCLVFW	0.571 ± 0.028
KTKKKRKQKGKQ	0.684 ± 0.064
FPPPLPPRLPPP	0.702 ± 0.0061
GGCDVCGVQWIG	0.73 ± 0.054
RGKKKAKIYREH	0.766 ± 0.13
CEPPRPGLLPLF	0.724 ± 0.016
GGGPGGWGGRGR	0.6449 ± 0.0052
GSTGRGEGSGVT	0.664 ± 0.04
VDSPFPTPLPLI	0.685 ± 0.087
FLHPLTPSPPLA	0.711 ± 0.096
PPHPPPPFPPPP	0.744 ± 0.015
APPARSTPPPRP	0.712 ± 0.045
QEKWSKVSKKKE	0.749 ± 0.19
LATIPTFPPLPP	0.634 ± 0.089
LSEDGGHRWHRI	0.796 ± 0.087
PSPPCPPTDPPA	0.624 ± 0.011

Sequence	protein stability index
GGGGVLGVVRVG	0.62 ± 0.033
GGGLSRVEGFGP	0.6681 ± 0.0038
GGMWGVGRGSVG	0.657 ± 0.068
PRPPPHPPPSPL	0.50931 ± 0.00043
LPPPPPSRSRPV	0.712 ± 0.039
LPNRRRLFLFPS	0.735 ± 0.05
KSKKERREKKKA	0.665 ± 0.031
GWCACFMGSGWG	0.703 ± 0.06
ARGGGRSEGGEG	0.7151 ± 0.0024
PPATRSLSAASP	0.722 ± 0.0095
WLGGGGGMQGVR	0.669 ± 0.057
KNNSKKRKLKPR	0.718 ± 0.14
SGSRRTSRVGSR	0.721 ± 0.0087
FFSHSAPAPFPL	0.692 ± 0.017
RRLGCDFDTYKK	0.718 ± 0.043
TEKTHRTTIVNN	0.7254 ± 0.0061
PPPPRDPLPLPR	0.677 ± 0.018
WVGEVSMGVRAG	0.666 ± 0.014
IKKNKQNKIKRN	0.699 ± 0.016
GRSIGVGGGGRG	0.719 ± 0.059
CAGVGGGLVSLG	0.688 ± 0.082
KRVIVRLASYAS	0.55909 ± 2.1e-05
KIKKKKKNTKTK	0.666 ± 0.047
WGRCGSVGRGGA	0.749 ± 0.024
PPGPPRPPPRTP	0.689 ± 0.0036
VARCWGGLGLAR	0.692 ± 0.047

Sequence	protein stability index
RQHYFDVLGEMY	0.7113 ± 0.0027
GRACCILWGGPE	0.694 ± 0.06
VLGPWVLSVLWF	0.546 ± 0.022
CSEGSSFVDKRG	0.594 ± 0.039
IPGVPEGLRSLH	0.629 ± 0.06
MTEFSESEGFIF	0.735 ± 0.064
GLLVAGGRNGDC	0.719 ± 0.054
TLSPPPALASPL	0.71 ± 0.037
PRPSPFIGLPFP	0.749 ± 0.067
CVWCSGRSPCYV	0.634 ± 0.047
PSPPPAPLHSPL	0.704 ± 0.058
PLSPPPAPLPSS	0.747 ± 0.071
LPFRPWLPRSLI	0.68 ± 0.059
ADLPALGSCGSY	0.631 ± 0.013
GVVGVWRGAGWR	0.717 ± 0.041
FSLPPAASDFPS	0.685 ± 0.015
GSDPPAPLRHPR	0.709 ± 0.19
LGVGGLRSRGAG	0.74 ± 0.2
KRKHQSPLLNTR	0.705 ± 0.021
CGCVSWYYGALD	0.628 ± 0.0073
HCRDCLVLIQFN	0.664 ± 0.048
LCLDHAKQNPGK	0.6641 ± 0.0051
AWRWGVGVGSGS	0.735 ± 0.17
SVGPVGASIGGG	0.6668 ± 0.0032
PPPPPHPALPVP	0.734 ± 0.016
KNTVRKCNGRMH	0.57 ± 0.063

Sequence	protein stability index
RSGSRNYPGFPR	0.764 ± 0.027
KKEISEKTNKKL	0.69 ± 0.012
PAPLRSPLVLPS	0.721 ± 0.039
FGRGGGGFLTLV	0.647 ± 0.0034
PPLPSMVLQRIY	0.589 ± 0.0065
GAHRRDTYTVIG	0.682 ± 0.011
ACWGCGVGRGEV	0.814 ± 0.12
TGTVYGGTRRGQ	0.698 ± 0.075
LFGNPVLSYFVI	0.5549 ± 0.0053
QLGALIAHSTTF	0.665 ± 0.13
SLPRSHRRGPVP	0.663 ± 0.014
VGIRTFFRFRMR	0.6692 ± 0.0014
KKKRKKSKKKKK	0.642 ± 0.1
VLPAGAGKGCVG	0.653 ± 0.052
PPSNSFHSSIPY	0.678 ± 0.02
PPRLLATVTRGT	0.654 ± 0.025
EVEKKKKKKNNK	0.663 ± 0.04
FEFGGGIRGSLG	0.679 ± 0.048
LRVYCVIPLSGM	0.526 ± 0.049
VSTPSPPSDSTP	0.685 ± 0.051
PPPLVPPPPSSL	0.731 ± 0.011
PLHNPPTRRTTP	0.67 ± 0.056
LPRLHLSPASPP	0.611 ± 0.048
EKWMRYLARCDI	0.6882 ± 0.0012
LRTLALSYTSLT	0.664 ± 0.035
RCCVPCWFMTLV	0.555 ± 0.021

Sequence	protein stability index
DISSSILEIFTS	0.7031 ± 0.0032
SRPRPPHTLLRP	0.688 ± 0.065
LPILRVVNLMGL	0.5935 ± 0.0048
VFLTASVLVAPF	0.575 ± 0.015
SVCRVSVKKECR	0.701 ± 0.12
RGYVSLSEGVAA	0.676 ± 0.058
GGGGVGTGCQRR	0.668 ± 0.037
SVSPSPPSPHLR	0.688 ± 0.011
LRNNKIKLIQKK	0.7809 ± 0.0034
TPASAGLACILL	0.672 ± 0.013
PLPLPPSVTSLL	0.729 ± 0.044
GPGTSSVARPVS	0.735 ± 0.07
QSGTRRRKRCSD	0.693 ± 0.042
GKTVRERWATRP	0.651 ± 0.064
NRKGNKHEKKYE	0.691 ± 0.0039
GWDRDQKPENKE	0.738 ± 0.045
LAPLRGHDHSRA	0.6638 ± 0.0055
PYAPYRPQVDSS	0.708 ± 0.018
LGWWGVWSWGRG	0.655 ± 0.033
PPPALPPPPRPP	0.604 ± 0.065

Source: the supplement of paper PMC10724198
